What was measured:
[1] = target: T1, RHAU53 peptide (DHX36 rG4-binding domain) (synthetic construct, UniProt Q9H2U1 SEQ:1-53); assay: EMSA; 100 nM RHAU53; binding to APP rG4 region inhibited by L-Apt.4-1c-ASO15nt(APP); data not shown; 37 C, KCl, MgCl2; settings: protein: synthetic; tags: none, chemically synthesized by Synpeptide; label: 5' HEX; RNA G-quadruplex with 3' flank
T1 sequence: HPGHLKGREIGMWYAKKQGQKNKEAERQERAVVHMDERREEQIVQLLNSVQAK
Procedure: L-Apt.4-1c-ASO15nt_{(APP)} conjugate was serial diluted, and then the conjugate and HEX APP rG4 wt region were firstly refolded by heating at 95° C. for 5 min, 25° C. for 5 min, then 4° C. for at least 30 min separately in buffer containing 150 mM KCl, 1 mM MgCl₂, 25 mM Tris-HCl (pH 7.5) and 8% sucrose separately. 48 nM DHX36 protein (SEQ ID NO: 41) (or 100 nM RHAU53 peptide (SEQ ID NO: 42)), HEX_APP rG4 wt region (SEQ ID NO: 12) and L-Apt.4-1c-ASO15nt_{(APP)} were mixed and incubated for 30 min at 37° C. for competition binding. Then, the samples were loaded and resolved in 6% (37.5:1, acrylamide/bis-acrylamide) native gel for 70min at 35 mA at 4° C. in the running buffer containing 50 mM KOAc, 25 mM Tris-HCl (pH 7.5), 1 mM MgCl₂ (for DHX36) or running at 12.5 mA for 75 min in buffer containing 0.5×TBE and 40 mM KOAc (for RHAU53). At last, gels were scanned using Typhoon laser-scanner platform (Cytiva). Gel pictures were analyzed by image J software.

DHX36 = target: T2, DHX36 (Homo sapiens, UniProt Q9H2U1 SEQ:1-1008); assay: EMSA; strong gel shift bands with DHX36; data not shown; exact label of the oligo not stated; settings: label: 5' HEX; RNA G-quadruplex with 3' flank
T2 chain: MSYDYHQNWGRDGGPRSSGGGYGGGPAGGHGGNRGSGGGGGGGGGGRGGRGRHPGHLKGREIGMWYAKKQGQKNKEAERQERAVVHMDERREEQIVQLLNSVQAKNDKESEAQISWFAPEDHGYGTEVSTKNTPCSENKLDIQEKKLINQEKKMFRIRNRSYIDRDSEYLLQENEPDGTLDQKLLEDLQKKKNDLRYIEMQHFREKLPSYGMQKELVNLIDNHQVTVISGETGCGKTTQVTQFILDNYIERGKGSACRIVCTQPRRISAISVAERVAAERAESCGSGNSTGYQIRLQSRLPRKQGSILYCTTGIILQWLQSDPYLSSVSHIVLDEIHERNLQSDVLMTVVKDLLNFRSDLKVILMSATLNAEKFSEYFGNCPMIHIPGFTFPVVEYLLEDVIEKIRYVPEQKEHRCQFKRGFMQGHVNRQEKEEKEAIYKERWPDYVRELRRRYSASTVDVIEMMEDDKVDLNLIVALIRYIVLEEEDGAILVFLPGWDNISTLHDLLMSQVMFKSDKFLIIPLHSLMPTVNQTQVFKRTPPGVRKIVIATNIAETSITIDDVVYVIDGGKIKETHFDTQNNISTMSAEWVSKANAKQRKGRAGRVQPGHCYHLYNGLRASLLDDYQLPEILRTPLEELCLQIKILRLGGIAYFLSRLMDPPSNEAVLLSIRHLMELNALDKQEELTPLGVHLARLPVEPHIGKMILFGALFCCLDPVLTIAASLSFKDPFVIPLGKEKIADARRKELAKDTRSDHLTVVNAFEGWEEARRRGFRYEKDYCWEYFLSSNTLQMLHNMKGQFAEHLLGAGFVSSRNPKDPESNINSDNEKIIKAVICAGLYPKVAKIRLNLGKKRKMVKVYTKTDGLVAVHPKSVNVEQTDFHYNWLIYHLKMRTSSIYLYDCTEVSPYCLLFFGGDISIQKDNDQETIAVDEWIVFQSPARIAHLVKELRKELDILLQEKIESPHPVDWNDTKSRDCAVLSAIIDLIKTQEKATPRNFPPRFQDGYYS

GGGGCGGGUGGGGAGGGGUGCUCUGCUGGUCUUCAAUU (ssRNA) [APP rG4 wt region (HEX)]: binds [1]; binds (DHX36).
